This note sets out measurements from CN112390879A (UNIV SHANGHAI TECHNOLOGY, dated 2021).

Assay [1] addresses T1, SARS-CoV-2 S蛋白的RBD蛋白 (SARS-CoV-2, UniProt P0DTC2 319-541).
T1 construct: domain: RBD
Nature of the assay: SPR, Biacore T200, RBD immobilised on CM5 chip, antibody in solution, 1:1 model.

Assay [2] has as its target SARS-CoV-2 S蛋白 (野生型) (SARS-CoV-2, UniProt P0DTC2 14-1273). The assay can be described thus: cell-based or functional assay.
Assay [3] concerns the target T1, SARS-CoV-2 S蛋白的RBD蛋白. The assay can be described thus: ELISA, RBD coated at 2 μg/mL, 1F as human IgG1.
Assay [4] has as its target 生物素化RBD (SARS-CoV-2, UniProt P0DTC2 319-541).

B1: 抗体1F (antibody, V domains shown)
VH: EVQLVESGPGLVKPSETLSLTCTVSGGSISSSSYYWGWIRQPPGKGLEWIGSIYYRGSTYYNPSLKSRVTISVDTSKNQFSLKLSSVTAADTAVYYCARHVRSAYYYGSGSYRDEGNWFDPWGQGTLVTVSS
VL: QSVLTQPPSVSGAPGQRVTISCTGTRSNIGAGHDVHWYQQLPGTAPKLLIYGNNNRPSGVPDRFSGAKSGTSASLAITGLQAEDEADYYCQSYDRTLTSYVFGTGTKVTVL
Molecule B1 yielded a Kd in assay [1] of 0.077 nM. Also, in assay [2], the “中和SARS-CoV-2活病毒 (Vero-E6细胞, RT-PCR) IC50” value was found to be 0.018 µg/mL and the “中和野生型SARS-CoV-2假病毒 (293T-ACE2细胞, 荧光素酶) IC50” value came out at 0.0464 µg/mL. Besides, the EC50 in assay [3] came out at 0.0016 µg/mL. In assay [4], this molecule returned an IC50 of 0.213 µg/mL.
